T1: soluble human FcγRIIb (human, UniProt P31994 43-217, limits assumed)
T1 construct: soluble His-tagged form; also called hFcγRIIb
T1 sequence (looked up): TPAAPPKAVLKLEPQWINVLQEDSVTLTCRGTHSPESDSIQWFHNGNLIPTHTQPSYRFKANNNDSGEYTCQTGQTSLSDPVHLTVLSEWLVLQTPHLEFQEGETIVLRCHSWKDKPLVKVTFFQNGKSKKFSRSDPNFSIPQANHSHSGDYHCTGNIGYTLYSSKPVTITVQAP


Biological target: T1, soluble human FcγRIIb
Test: SPR, Ab-IgE complex over captured hFcγRIIb, pH 7.4, 25C
Experimental: Fc region variant-containing antibody binding assays between soluble human FcγRIIb (a.k.a. “hFcγRIIb”) and antigen-antibody complexes were performed using BIACORE® T200 (GE Healthcare). Soluble hFcγRIIb was produced in the form of a His-tagged molecule using methods known in the art. An appropriate amount of an anti-His antibody was fixed onto Sensor chip CM5 (GE Healthcare) by the amine coupling method using a His capture kit (GE Healthcare) to capture hFcγRIIb. Next, an antibody-antigen complex and a running buffer (as a reference solution) was injected, and interaction was allowed to take place with the hFcγRIIb captured onto the sensor chip. 20 mM N-(2-Acetamido)-2-aminoethanesulfonic acid, 150 mM NaCl, 1.2 mM CaCl₂, and 0.05% (w/v) Tween 20 at pH 7.4 was used as the running buffer, and the respective buffer was also used to dilute the soluble hFcγRIIb. To regenerate the sensor chip, 10 mM glycine-HCl at pH 1.5 was used. All measurements were carried out at 25° C. Analyses were performed based on binding (RU) calculated from sensorgrains obtained by the measurements, and relative values when the binding amount of P600 was defined as 1.00 are shown. To calculate the parameters, the BIACORE® T100 Evaluation Software (GE Healthcare) was used.

relative binding (RU), P600=1.00 | Binder
1 fold | Ab1H-P600/Ab1L (antibody, human IgG1, kappa, name in EU numbering, copies: 2 + 2) heavy: not shown light: DIQMTQSPSSVSASVGDRVTITCQASESIYSGLAWYQQKPGQPPKLLIYDHSTLASGVPSRFSGSGSGTEYALTISSLQPEDFATYYCQHADYAHHSDNVFGGGTKVEIKRTVAAPSVFIFPPSDEQLKSGTASVVCLLNNFYPREAKVQWKVDNALQSGNSQESVTEQDSKDSTYSLSSTLTLSKADYEKHKVYACEVTHQGLSSPVTKSFNRGEC
3.85 fold | Ab1H-P831/Ab1L (antibody, human IgG1, kappa, name in EU numbering, copies: 2 + 2) heavy: QVQLVESGGGLVQPGGSLRLSCAASGFTLSNHDMTWVRQAPGKGLEYVSIINTYGNHWYANWASGRFTISRDNSKNTVYLQIDSLRAEDTATYYCARETHHGSSGIDHWGQGTLVTVSSASTKGPSVFPLAPSSKSTSGGTAALGCLVKDYFPEPVTVSWNSGALTSGVHTFPAVLQSSGLYSLSSVVTVPSSSLGTQTYICNVNHKPSNTKVDKKVEPKSCDKTHTCPPCPAPELLGGDSVFLFPPKPKDTLMISRTPEVTCVVVDVSHEDPEVKFNWYVDGVEVHNAKTKPREEQYNATYRVVSVLTVLHQDWLNGKEYKCKVSNKALPAPIEKTISKAKGQPREPQVYTLPPSREEMTKNQVSLTCLVKGFYPSDIAVEWESNGQRENNYKTTPPVLDSDGSFFLYSKLTVDKSRWQQGNVFSCSVMHEALHNHYTQKSLSLSP light: DIQMTQSPSSVSASVGDRVTITCQASESIYSGLAWYQQKPGQPPKLLIYDHSTLASGVPSRFSGSGSGTEYALTISSLQPEDFATYYCQHADYAHHSDNVFGGGTKVEIKRTVAAPSVFIFPPSDEQLKSGTASVVCLLNNFYPREAKVQWKVDNALQSGNSQESVTEQDSKDSTYSLSSTLTLSKADYEKHKVYACEVTHQGLSSPVTKSFNRGEC
2.25 fold | Ab1H-P840/Ab1L (antibody, human IgG1, kappa, name in EU numbering, copies: 2 + 2) heavy: QVQLVESGGGLVQPGGSLRLSCAASGFTLSNHDMTWVRQAPGKGLEYVSIINTYGNHWYANWASGRFTISRDNSKNTVYLQIDSLRAEDTATYYCARETHHGSSGIDHWGQGTLVTVSSASTKGPSVFPLAPSSKSTSGGTAALGCLVKDYFPEPVTVSWNSGALTSGVHTFPAVLQSSGLYSLSSVVTVPSSSLGTQTYICNVNHKPSNTKVDKKVEPKSCDKTHTCPPCPAPELLGGDSVFLFPPKPKDTLMISRTPEVTCVVVDVSHEDPEVKFNWYVDGVEVHNAKTKPREEQYNATYRVVSVLTVLHQDWLNGKEYKCKVSNKALPAPIEKTISKAKGQPREPQVYTLPPSREEMKKNQVSLTCLVKGFYPSDIAVEWESNGQPENNYKTTPPVLDSDGSFFLYSKLTVDKSRWQQGNVFSCSVMHEALHNHYTQKSLSLSP light: DIQMTQSPSSVSASVGDRVTITCQASESIYSGLAWYQQKPGQPPKLLIYDHSTLASGVPSRFSGSGSGTEYALTISSLQPEDFATYYCQHADYAHHSDNVFGGGTKVEIKRTVAAPSVFIFPPSDEQLKSGTASVVCLLNNFYPREAKVQWKVDNALQSGNSQESVTEQDSKDSTYSLSSTLTLSKADYEKHKVYACEVTHQGLSSPVTKSFNRGEC
1.27 fold | Ab1H-P828/Ab1L (antibody, human IgG1, kappa, name in EU numbering, copies: 2 + 2) heavy: not shown light: DIQMTQSPSSVSASVGDRVTITCQASESIYSGLAWYQQKPGQPPKLLIYDHSTLASGVPSRFSGSGSGTEYALTISSLQPEDFATYYCQHADYAHHSDNVFGGGTKVEIKRTVAAPSVFIFPPSDEQLKSGTASVVCLLNNFYPREAKVQWKVDNALQSGNSQESVTEQDSKDSTYSLSSTLTLSKADYEKHKVYACEVTHQGLSSPVTKSFNRGEC
2.37 fold | Ab1H-P842/Ab1L (antibody, human IgG1, kappa, name in EU numbering, copies: 2 + 2) heavy: QVQLVESGGGLVQPGGSLRLSCAASGFTLSNHDMTWVRQAPGKGLEYVSIINTYGNHWYANWASGRFTISRDNSKNTVYLQIDSLRAEDTATYYCARETHHGSSGIDHWGQGTLVTVSSASTKGPSVFPLAPSSKSTSGGTAALGCLVKDYFPEPVTVSWNSGALTSGVHTFPAVLQSSGLYSLSSVVTVPSSSLGTQTYICNVNHKPSNTKVDKKVEPKSCDKTHTCPPCPAPELLGGDSVFLFPPKPKDTLMISRTPEVTCVVVDVSHEDPEVKFNWYVDGVEVHNAKTKPREEQYNATYRVVSVLTVLHQDWLNGKEYKCKVSNKALPAPIEKTISKAKGQPREPQVYTLPPSREEMTKNKVSLTCLVKGFYPSDIAVEWESNGQPENNYKTTPPVLDSDGSFFLYSKLTVDKSRWQQGNVFSCSVMHEALHNHYTQKSLSLSP light: DIQMTQSPSSVSASVGDRVTITCQASESIYSGLAWYQQKPGQPPKLLIYDHSTLASGVPSRFSGSGSGTEYALTISSLQPEDFATYYCQHADYAHHSDNVFGGGTKVEIKRTVAAPSVFIFPPSDEQLKSGTASVVCLLNNFYPREAKVQWKVDNALQSGNSQESVTEQDSKDSTYSLSSTLTLSKADYEKHKVYACEVTHQGLSSPVTKSFNRGEC
1.86 fold | Ab1H-P841/Ab1L (antibody, human IgG1, kappa, name in EU numbering, copies: 2 + 2) heavy: QVQLVESGGGLVQPGGSLRLSCAASGFTLSNHDMTWVRQAPGKGLEYVSIINTYGNHWYANWASGRFTISRDNSKNTVYLQIDSLRAEDTATYYCARETHHGSSGIDHWGQGTLVTVSSASTKGPSVFPLAPSSKSTSGGTAALGCLVKDYFPEPVTVSWNSGALTSGVHTFPAVLQSSGLYSLSSVVTVPSSSLGTQTYICNVNHKPSNTKVDKKVEPKSCDKTHTCPPCPAPELLGGDSVFLFPPKPKDTLMISRTPEVTCVVVDVSHEDPEVKFNWYVDGVEVHNAKTKPREEQYNATYRVVSVLTVLHQDWLNGKEYKCKVSNKALPAPIEKTISKAKGQPREPQVYTLPPSREEMTKRQVSLTCLVKGFYPSDIAVEWESNGQPENNYKTTPPVLDSDGSFFLYSKLTVDKSRWQQGNVFSCSVMHEALHNHYTQKSLSLSP light: DIQMTQSPSSVSASVGDRVTITCQASESIYSGLAWYQQKPGQPPKLLIYDHSTLASGVPSRFSGSGSGTEYALTISSLQPEDFATYYCQHADYAHHSDNVFGGGTKVEIKRTVAAPSVFIFPPSDEQLKSGTASVVCLLNNFYPREAKVQWKVDNALQSGNSQESVTEQDSKDSTYSLSSTLTLSKADYEKHKVYACEVTHQGLSSPVTKSFNRGEC
1.88 fold | Ab1H-P837/Ab1L (antibody, human IgG1, kappa, name in EU numbering) heavy: QVQLVESGGGLVQPGGSLRLSCAASGFTLSNHDMTWVRQAPGKGLEYVSIINTYGNHWYANWASGRFTISRDNSKNTVYLQIDSLRAEDTATYYCARETHHGSSGIDHWGQGTLVTVSSASTKGPSVFPLAPSSKSTSGGTAALGCLVKDYFPEPVTVSWNSGALTSGVHTFPAVLQSSGLYSLSSVVTVPSSSLGTQTYICNVNHKPSNTKVDKKVEPKSCDKTHTCPPCPAPELLGGDSVFLFPPKPKDTLMISRTPEVTCVVVDVSHEDPEVKFNWYVDGVEVHNAKTKPREEQYNATYRVVSVLTVLHQDWLNGKEYKCKVSNKALPAPIEKTISKAKGQPRRPQVYTLPPSREEMTKNQVSLTCLVKGFYPSDIAVEWESNGQPENNYKTTPPVLDSDGSFFLYSKLTVDKSRWQQGNVFSCSVMHEALHNHYTQKSLSLSP light: DIQMTQSPSSVSASVGDRVTITCQASESIYSGLAWYQQKPGQPPKLLIYDHSTLASGVPSRFSGSGSGTEYALTISSLQPEDFATYYCQHADYAHHSDNVFGGGTKVEIKRTVAAPSVFIFPPSDEQLKSGTASVVCLLNNFYPREAKVQWKVDNALQSGNSQESVTEQDSKDSTYSLSSTLTLSKADYEKHKVYACEVTHQGLSSPVTKSFNRGEC
0.17 fold | Ab1H-P829/Ab1L (antibody, human IgG1, kappa, name in EU numbering, copies: 2 + 2) heavy: QVQLVESGGGLVQPGGSLRLSCAASGFTLSNHDMTWVRQAPGKGLEYVSIINTYGNHWYANWASGRFTISRDNSKNTVYLQIDSLRAEDTATYYCARETHHGSSGIDHWGQGTLVTVSSASTKGPSVFPLAPSSKSTSGGTAALGCLVKDYFPEPVTVSWNSGALTSGVHTFPAVLQSSGLYSLSSVVTVPSSSLGTQTYICNVNHKPSNTKVDKKVEPKSCDKTHTCPPCPAPELLGGDSVFLFPPKPKDTLMISRTPEVTCVVVDVSHEDPEVKFNWYVDGVEVHNAKTKPREEQYNATYRVVSVLTVLHQDWLNGKEYKCKVSNKALPAPIEKTIRKAKGQPREPQVYTLPPSREEMTKNQVSLTCLVKGFYPSDIAVEWESNGQPENNYKTTPPVLDSDGSFFLYSKLTVDKSRWQQGNVFSCSVMHEALHNHYTQKSLSLSP light: DIQMTQSPSSVSASVGDRVTITCQASESIYSGLAWYQQKPGQPPKLLIYDHSTLASGVPSRFSGSGSGTEYALTISSLQPEDFATYYCQHADYAHHSDNVFGGGTKVEIKRTVAAPSVFIFPPSDEQLKSGTASVVCLLNNFYPREAKVQWKVDNALQSGNSQESVTEQDSKDSTYSLSSTLTLSKADYEKHKVYACEVTHQGLSSPVTKSFNRGEC
-0.04 fold | Ab1H-P843/Ab1L (antibody, human IgG1, kappa, name in EU numbering, copies: 2 + 2) heavy: QVQLVESGGGLVQPGGSLRLSCAASGFTLSNHDMTWVRQAPGKGLEYVSIINTYGNHWYANWASGRFTISRDNSKNTVYLQIDSLRAEDTATYYCARETHHGSSGIDHWGQGTLVTVSSASTKGPSVFPLAPSSKSTSGGTAALGCLVKDYFPEPVTVSWNSGALTSGVHTFPAVLQSSGLYSLSSVVTVPSSSLGTQTYICNVNHKPSNTKVDKKVEPKSCDKTHTCPPCPAPELLGGDSVFLFPPKPKDTLMISRTPEVTCVVVDVSHEDPEVKFNWYVDGVEVHNAKTKPREEQYNATYRVVSVLTVLHQDWLNGKEYKCKVSNKALPAPIEKTISKAKGQPREPQVYTLPPSREEMTKNQVSLTCLVKGFYPSDIAVRWESNGQPENNYKTTPPVLDSDGSFFLYSKLTVDKSRWQQGNVFSCSVMHEALHNHYTQKSLSLSP light: DIQMTQSPSSVSASVGDRVTITCQASESIYSGLAWYQQKPGQPPKLLIYDHSTLASGVPSRFSGSGSGTEYALTISSLQPEDFATYYCQHADYAHHSDNVFGGGTKVEIKRTVAAPSVFIFPPSDEQLKSGTASVVCLLNNFYPREAKVQWKVDNALQSGNSQESVTEQDSKDSTYSLSSTLTLSKADYEKHKVYACEVTHQGLSSPVTKSFNRGEC

— patent US20180258163A1 (Chugai, published 2018)
